Publication PMC11882849, “Dynamic and intricate regulation by the Csr sRNAs in the Arctic Pseudoalteromonas fuliginea”

Target: CsrA (Pseudoalteromonas fuliginea BSW20308, UniProt A0A063KJE6 1-63)
Test: EMSA; 1 uM CsrA; 0.1-0.5 nM RNA, 40 mM NaCl, 4 mM Tris pH 8.0, 4 mM MgCl2, 4% glycerol, 100 mg/ml BSA (so in the source), 20 mM DTT, room temperature 30 min, native PAGE
Details: protein: recombinant; tags: C-terminal His6; chain copies: 2

B1: Pf3 sRNA (structured_RNA)
RNA: AAUAAAAAAACGGAAAUAGCUAUAAGGAAAGUAGCGCGGCACGACUACAUAGCACAAGAUUGGUGCUACUAAAGGAAAUAAUAAAAAAGAGUCAGGAAGACCGAUAAUAAUAAAAACUCAUGGAAGUUUAAUAAUAAAAACAAAAUGGAAUGCUACAAGGAACGUAAAAAUAAUAACAAUACGGACUGAUAAUAAUAAAAAUAAUAAAGACUAAAAAAAGUCGAAGGGAGA
  binding result: binds
